Measured values as given in PMC12208167.

Legend:
[1] = biological target: human neonatal Fc receptor (FcRn) (human) (UniProt P55899); test: ELISA
[2] = biological target: murine neonatal Fc receptor (FcRn) (mouse | not stated) (UniProt Q61559); test: ELISA
[3] = biological target: human neonatal Fc receptor (FcRn) (human) (UniProt P55899); test: SPR
[4] = biological target: murine neonatal Fc receptor (FcRn) (mouse | not stated) (UniProt Q61559); test: SPR

Chain of UniProt Q61559 (Q61559 22-365, chain 1 of 2): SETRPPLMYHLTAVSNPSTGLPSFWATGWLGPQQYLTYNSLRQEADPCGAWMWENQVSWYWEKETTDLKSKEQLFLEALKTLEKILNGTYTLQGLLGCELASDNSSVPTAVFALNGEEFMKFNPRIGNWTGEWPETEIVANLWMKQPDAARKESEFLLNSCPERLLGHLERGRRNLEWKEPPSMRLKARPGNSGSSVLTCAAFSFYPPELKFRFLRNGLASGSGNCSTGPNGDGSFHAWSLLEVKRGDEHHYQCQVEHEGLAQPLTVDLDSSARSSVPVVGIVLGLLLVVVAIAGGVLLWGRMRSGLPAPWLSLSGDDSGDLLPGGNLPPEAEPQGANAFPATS
Chain of UniProt Q61559 (P01887 21-119, chain 2 of 2, further chain): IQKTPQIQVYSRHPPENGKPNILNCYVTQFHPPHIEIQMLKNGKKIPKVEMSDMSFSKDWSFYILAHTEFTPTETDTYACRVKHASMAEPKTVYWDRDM
Chain of UniProt P55899 (P55899 27-297, chain 1 of 2): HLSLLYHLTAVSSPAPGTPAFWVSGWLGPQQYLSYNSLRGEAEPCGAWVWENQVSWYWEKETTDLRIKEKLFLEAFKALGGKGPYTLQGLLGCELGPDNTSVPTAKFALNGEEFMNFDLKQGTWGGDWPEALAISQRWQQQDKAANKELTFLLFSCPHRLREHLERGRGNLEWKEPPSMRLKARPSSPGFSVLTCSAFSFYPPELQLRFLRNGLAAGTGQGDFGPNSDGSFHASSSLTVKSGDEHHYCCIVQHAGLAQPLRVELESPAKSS
Chain of UniProt P55899 (P61769 21-119, chain 2 of 2, further chain): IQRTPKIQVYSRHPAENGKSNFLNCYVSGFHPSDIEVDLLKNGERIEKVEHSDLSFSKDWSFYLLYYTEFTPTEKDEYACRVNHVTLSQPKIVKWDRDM

Substance | EC50 [1] [nM] | EC50 [2] [nM] | Kd [3] [nM] | Kd [4] [nM]
B domain-deleted (BDD) FVIII (ReFacto AF) (natural protein) | 1140 | 130 | – | –
m66.6, human anti-MPER HIV monoclonal IgG1 (antibody) | – | – | 1.3 to 2.8 | 0.2 to 0.4
